Source: publication PMC7325957

Target: NttE from L. pneumophila strain 130b, His6-tagged (residues 1 to 269; minus its N-terminal signal sequence) (Legionella pneumophila strain 130b)
Test: SEC-SAXS

NttE from L. pneumophila strain 130b, His6-tagged (residues 1 to 269; minus its N-terminal signal sequence) (natural protein)
stoichiometry N: 2
